According to US20240409645A1 (DUALYX, published 2024):
Positions count from the first letter of the chain named.

T1: human IL-2Rα (human, UniProt P01589 22-240, limits assumed)
T1 construct: recombinant protein; also called hu IL-2R; human IL-2Ra
T1 sequence: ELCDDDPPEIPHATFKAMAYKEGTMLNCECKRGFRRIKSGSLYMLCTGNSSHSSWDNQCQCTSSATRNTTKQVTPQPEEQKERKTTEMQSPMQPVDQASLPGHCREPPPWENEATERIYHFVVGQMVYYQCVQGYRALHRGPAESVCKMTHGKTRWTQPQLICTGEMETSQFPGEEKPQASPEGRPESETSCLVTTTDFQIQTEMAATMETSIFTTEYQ

T2: mouse IL-2Rα (mouse, UniProt P01590 22-236, limits assumed)
T2 construct: recombinant protein; also called mo IL-2R; mouse IL-2Ra
T2 sequence (looked up): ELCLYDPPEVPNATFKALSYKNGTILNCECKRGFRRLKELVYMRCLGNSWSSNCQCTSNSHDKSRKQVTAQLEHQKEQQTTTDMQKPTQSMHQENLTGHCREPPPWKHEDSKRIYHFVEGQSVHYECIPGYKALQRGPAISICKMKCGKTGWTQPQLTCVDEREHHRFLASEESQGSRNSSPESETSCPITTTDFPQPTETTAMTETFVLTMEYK

T3: human IL-2Rγ (common cytokine receptor γ-chain) (human, UniProt P31785 23-262, limits assumed)
T3 construct: Recombinant protein coated on the plate or immobilised on a CM5 chip; also called hu IL-2R; CD132
T3 sequence: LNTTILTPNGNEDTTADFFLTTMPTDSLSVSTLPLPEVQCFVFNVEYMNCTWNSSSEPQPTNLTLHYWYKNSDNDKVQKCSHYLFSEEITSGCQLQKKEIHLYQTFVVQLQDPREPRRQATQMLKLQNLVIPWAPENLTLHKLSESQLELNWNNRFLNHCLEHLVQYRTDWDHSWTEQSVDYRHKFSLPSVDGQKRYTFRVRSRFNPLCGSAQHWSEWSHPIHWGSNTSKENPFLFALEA

T4: mouse IL-2Rγ (mouse, UniProt P34902 23-263)
T4 construct: also called mo IL-2R
T4 sequence (looked up): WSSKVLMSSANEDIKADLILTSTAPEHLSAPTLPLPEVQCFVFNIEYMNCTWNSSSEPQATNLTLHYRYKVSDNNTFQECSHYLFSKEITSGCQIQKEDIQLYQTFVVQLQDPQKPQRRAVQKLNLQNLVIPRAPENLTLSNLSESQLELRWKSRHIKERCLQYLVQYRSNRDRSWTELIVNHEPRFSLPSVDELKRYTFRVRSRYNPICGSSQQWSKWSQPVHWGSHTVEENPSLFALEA

B1: 4-MP01F04 (VHH)
VHH: QVQLVESGGGLVQAGGSLRLSCAASGGTFRTRNMGWFRRAPGKEREFVAAVSWNVDNKLYADSVKGRFTISRDNGRNMVYLQMNSLKPEDTAVYYCAADNIPLSSDMRPTATEYDYWGQGTQVTVSS
notes: periplasmic extract; also called FJ1427_P035MP01F04
B2: FJ1427_P035MP05E04 (VHH)
VHH: B1 VHH with N54S, D62G, Y114F, D115G, Q122R
notes: periplasmic extract; also called clone nr
B3: 9-MP05G01 (VHH)
VHH: EVQLVESGGGLVQAGGSLRLSCAASGGSIYTYNMGWFRQAPGKEREFVAGTLWSGGDSVYADFAKGRFTLSRENAKNTLYLQMNSLKPEDTATYYCAIDPLSLTSDWRVDELSSWGKGTLVTVSS
notes: periplasmic extract; also called FJ1427_P035MP05G01
B4: FJ1427_P035MP05A10 (VHH)
VHH: QLQLVESGGGLVQAGGSLRLSCTASGLTFDGYAIGWFRQAPGKEREGVSYITGSDGSTYYIDSVKGRFTISSDIAKSTVYLQMNSLKPEDTAVYYCAVDRLGSRGLYASSWWRSGDMDLWGKGTLVTVSS
notes: as for B2
B5: FJ1427_P035MP05E10 (VHH)
VHH: B4 VHH with Q1E, L2V
notes: as for B2
B6: FJ1427_P035MP05D10 (VHH)
VHH: B4 VHH with L2V, I61R, I74N, S85T
notes: periplasmic extract; also called clone nr; 460
B7: 11-MP05H04 (VHH)
VHH: B4 VHH with T23A, D30E, S57T, D62N, I74N, S85T, R104Q, L106R, S110A, L125Q
notes: periplasmic extract; also called FJ1427_P035MP05H04
B8: FJ1427_P035MP05C11 (VHH)
VHH: B4 VHH with L2V, D30E, G56A, I74F, S85N, L106G
notes: as for B2
B9: FJ1427_P035MP05G08 (VHH)
VHH: B4 VHH with D30E, G56A, I74F, S85N, L106G
notes: as for B2
B10: FJ1427_P035MP05H09 (VHH)
VHH: B4 VHH with G10D, A14P, D55N, S85T
notes: as for B2
B11: FJ1427_P035MP04E01 (VHH)
VHH: QVQLVESGGGLVQAGGSLRLSCAASGRTLSRYAMGWFRQAPGKEREFVTANSWGGDTYYADSVQGRFTFSRDNAKNTVYLQMNSLQPEDTAVYYCAAAPTSFATTAYSSSNSYAYWGQGTQVTVSS
notes: VHH in periplasmic extract; also called clone nr
B12: FJ1427_P035MP04F01 (VHH)
VHH: B11 VHH
notes: as for B11
B13: FJ1427_P035MP04H05 (VHH)
VHH: B11 VHH
notes: as for B11
B14: FJ1427_P035MP04B12 (VHH)
VHH: B11 VHH
notes: as for B11
B15: FJ1427_P035MP04E08 (VHH)
VHH: B11 VHH
notes: as for B11
B16: FJ1427_P035MP04D10 (VHH)
VHH: B11 VHH
notes: VHH in periplasmic extract; also called clone nr; 364
B17: FJ1427_P035MP04G02 (VHH)
VHH: B11 VHH
notes: as for B11
B18: FJ1427_P035MP04H01 (VHH)
VHH: B11 VHH
notes: as for B11
B19: FJ1427_P035MP04B09 (VHH)
VHH: B11 VHH
notes: as for B11
B20: FJ1427_P035MP04F06 (VHH)
VHH: B11 VHH
notes: as for B11
B21: FJ1427_P035MP04E11 (VHH)
VHH: B11 VHH
notes: as for B11
B22: FJ1427_P035MP04C02 (VHH)
VHH: B11 VHH
notes: as for B11
B23: FJ1427_P035MP04A02 (VHH)
VHH: B11 VHH
notes: as for B11

Columns and labels:
human IL-2Rα [1] = molecular target: T1, human IL-2Rα; assay: SPR, P.E. on immobilised antigen
Summary of the method: (§1)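 Recombinant receptor was amine-coupled in acetate buffer onto a CM5 carboxymethyl dextran chip at approximately 2500 RU. VHH-containing periplasmic extracts were injected at 30 uL/min, and dissociation was followed for 120s to give off-rates.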

mouse IL-2Rα [2] = molecular target: T2, mouse IL-2Rα; assay: SPR, P.E. on immobilised antigen
Summary of the method: as §1

human IL-2Rα [3] = molecular target: T1, human IL-2Rα; assay: ELISA, P.E. on coated antigen
Summary of the method: (§2)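 Direct-coat ELISA: receptor protein o/n 4° C → 4% Marvel/PBS block 1 h → P.E. 1:5 in 1% Marvel/PBS, 1 h → OD450 vs neg. controls.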

mouse IL-2Rα [4] = molecular target: T2, mouse IL-2Rα; assay: ELISA, P.E. on coated antigen
Summary of the method: as §2

[5] = molecular target: T3, human IL-2Rγ (common cytokine receptor …); assay: SPR off-rate ranking, periplasmic extract on immobilised protein
Summary of the method: as §1

mouse IL-2Rγ [6] = molecular target: T4, mouse IL-2Rγ; assay: as above
Summary of the method: as §1

[7] = molecular target: T3, human IL-2Rγ (common cytokine receptor …); assay: PE binding ELISA, periplasmic extract on coated protein
Summary of the method: as §2

mouse IL-2Rγ [8] = molecular target: T4, mouse IL-2Rγ; assay: as above
Summary of the method: as §2

Row | Binder | koff (human IL-2Rα [1]) [s⁻¹] | koff (mouse IL-2Rα [2]) [s⁻¹] | OD (PE binding ELISA) (human IL-2Rα [3]) [OD450 nm] | OD (PE binding ELISA) (mouse IL-2Rα [4]) [OD450 nm] | koff [5] [s⁻¹] | koff (mouse IL-2Rγ [6]) [s⁻¹] | OD (PE binding ELISA) [7] [OD450 nm] | OD (PE binding ELISA) (mouse IL-2Rγ [8]) [OD450 nm]
1 | B1 | 0.000258 | 0.256 | 2.49 | 0.046 |  |  |  | 
2 | B2 | 0.00158 | 0.196 | 2.38 | 0.046 |  |  |  | 
3 | B3 | 0.000169 | 0.0442 | 2.35 | 0.047 |  |  |  | 
4 | B4 | 0.0012 | 0.00321 | 2.18 | 0.24 |  |  |  | 
5 | B5 | 0.00169 | 0.00177 | 2.27 | 0.718 |  |  |  | 
6 | B6 | 0.00108 | 0.00284 | 2.09 | 0.107 |  |  |  | 
7 | B7 | 0.0012 | 0.00163 | 2.22 | 0.163 |  |  |  | 
8 | B8 | 0.00044 | 0.000844 | 2.14 | 0.632 |  |  |  | 
9 | B9 | 0.000908 | 0.00258 | 2.39 | 0.38 |  |  |  | 
10 | B10 | 0.00105 | 0.00244 | 2.26 | 0.154 |  |  |  | 
11 | B11 |  |  |  |  | 0.00266 | 0.109 | 1.08 | 0.067
12 | B12 |  |  |  |  | 0.00268 | 0.11 | 1.66 | 0.085
13 | B13 |  |  |  |  | 0.00273 | 0.108 | 1.57 | 0.08
14 | B14 |  |  |  |  | 0.00344 | 0.116 | 0.936 | 0.074
15 | B15 |  |  |  |  | 0.00197 | 0.122 | 1.23 | 0.078
16 | B16 |  |  |  |  | 0.00139 | 0.12 | 1.26 | 0.077
17 | B17 |  |  |  |  | 0.00148 | 0.114 | 0.98 | 0.066
18 | B18 |  |  |  |  | 0.00206 | 0.104 | 1.67 | 0.109
19 | B19 |  |  |  |  | 0.00146 | 0.122 | 1.54 | 0.083
20 | B20 |  |  |  |  | 0.00298 | 0.116 | 1.41 | 0.077
21 | B21 |  |  |  |  | 0.00149 | 0.117 | 0.94 | 0.065
22 | B22 |  |  |  |  | 0.00196 | 0.126 | 1 | 0.07
23 | B23 |  |  |  |  | 0.00306 | 0.126 | 1.45 | 0.085
